{"source": "patent US20250066436A1", "key": {"[1]": {"target": "endothelial cell protein C receptor (EPCR) (human) (UniProt Q9UNN8)", "sequence (Q9UNN8 18-238)": "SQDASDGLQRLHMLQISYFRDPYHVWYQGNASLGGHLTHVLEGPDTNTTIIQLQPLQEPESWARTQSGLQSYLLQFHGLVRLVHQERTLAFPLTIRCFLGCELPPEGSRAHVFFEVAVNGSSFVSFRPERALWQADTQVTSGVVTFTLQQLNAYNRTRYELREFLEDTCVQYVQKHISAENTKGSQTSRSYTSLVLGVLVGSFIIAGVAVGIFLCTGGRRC", "assay": "binding to EPCR on endothelial cells; reference is wild type APC"}, "[2]": {"target": "endothelial cell protein C receptor (EPCR) (human) (UniProt Q9UNN8)", "assay": "cell-based or functional assay"}, "[3]": {"target": "PAR1^WT/β-11 (PAR1 with the GFP 11th β-strand fused to its C-terminus) (UniProt P25116)", "assay": "cell-based or functional assay"}, "[4]": {"target": "endothelial cell protein C receptor (EPCR) (human) (UniProt Q9UNN8)", "assay": "binding to EPCR; reference is the natural ligands of EPCR"}, "[5]": {"target": "endothelial cell protein C receptor (EPCR) (human) (UniProt Q9UNN8)", "assay": "binding to EPCR on endothelial cells; reference is wild type"}, "[6]": {"target": "endothelial cell protein C receptor (EPCR) (human) (UniProt Q9UNN8)", "assay": "flow cytometry, labelled active-site blocked protease on endothelial cells"}, "[7]": {"target": "endothelial cell protein C receptor (EPCR) (human) (UniProt Q9UNN8)", "assay": "flow cytometry, fluorescently labelled protease on endothelial cells"}, "[8]": {"target": "AP-PAR1 (PAR1 with an N-terminal alkaline phosphatase tag) (UniProt P25116)"}, "[9]": {"target": "T1, AP-PAR1 (PAR1 with an N-terminal alkaline phosphatase tag), P25116", "T1 chain": "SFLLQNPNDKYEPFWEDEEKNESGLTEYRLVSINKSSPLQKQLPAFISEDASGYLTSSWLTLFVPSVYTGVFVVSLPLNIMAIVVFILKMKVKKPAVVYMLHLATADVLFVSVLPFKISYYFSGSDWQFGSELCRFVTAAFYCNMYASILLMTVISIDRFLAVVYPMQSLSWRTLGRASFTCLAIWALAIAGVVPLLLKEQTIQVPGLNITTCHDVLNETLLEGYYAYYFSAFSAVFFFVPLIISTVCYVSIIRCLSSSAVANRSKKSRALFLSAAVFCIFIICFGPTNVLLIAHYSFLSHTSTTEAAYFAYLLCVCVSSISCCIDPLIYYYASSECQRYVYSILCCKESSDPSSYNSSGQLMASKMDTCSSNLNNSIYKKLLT"}}}
{"molecule": "APC^CIDRα1.4 (truncated human activated protein C fused to the PfEMP1 CIDRα1.4 HB3var03 domain), proteolytically active (enzyme)", "values": [{"measurement": "fold enhanced affinity compared to wild type APC", "setting": "[1]", "value": "< 100", "unit": "fold"}, {"measurement": "β-arrestin 2 recruitment to activated PAR1 in HEK 293T β-arrestin 2 reporter cells", "setting": "[2]", "value": 3, "unit": "fold"}, {"measurement": "β-arrestin 2 recruitment to PAR1 (GFP formation by flow cytometry)", "setting": "[3]", "value": "> 2", "unit": "fold"}, {"measurement": "fold higher affinity than its natural ligands", "setting": "[4]", "value": "< 100", "unit": "fold"}, {"measurement": "fold increase in affinity compared to wild type", "setting": "[5]", "value": "> 100", "unit": "fold"}]}
{"molecule": "P-APC^CIDR (APC^CIDRα1.4 active-site blocked with biotinylated PPACK) (enzyme)", "values": [{"measurement": "concentration at which cell binding was still clearly visible", "setting": "[6]", "value": "< 0.3", "unit": "nM"}, {"measurement": "lowest concentration tested at which bound protease was present", "setting": "[7]", "value": 0.1, "unit": "nM"}]}
{"molecule": "wild type activated protein C (APC), proteolytically active", "values": [{"measurement": "PAR1 proteolysis (release of alkaline phosphatase tag into the supernatant)", "setting": "[8]", "value": "APC^CIDR cleaves PAR1 with comparable activity as APC"}]}
{"molecule": "APC^CIDRα1.4 (truncated human activated protein C fused to the PfEMP1 CIDRα1.4 HB3var03 domain), proteolytically active (protein) MRLAVGALLVCAVLGLCLPDCGVECKNETCTPKTVIYPDCGKNEKYEPPGDAKNTEINVINSGDKEGYIFEKLSEFCTNENNENGKNYEQWKCYYDNKKNNNKCKMEINIANSKLKNKITSFDEFFDFWVRKLLIDTIKWETELTYCINNTDVTDCNKCNKNCVCFDKWVKQKEDEWTNIMKLFTNKHDIPKKYYLNINDLFDSFFFQVIYKFNEGEAKWNELKENLKKQIASSKANNGTKDSEAAIKVLFNHIKEIATICKDNNTNEGCGDQCLVLPLEHPCASLCCGHGTCIDGIGSFSCDCRSGWEGRFCQREVSFLNCSLDNGGCTHYCLEEVGWRRCSCAPGYKLGDDLLQCHPAVKFPCGRPWKRMEKKRSHLKRDTEDQEDQVDPRLIDGKMTRRGDSPWQVVLLDSKKKLACGAVLIHPSWVLTAAHCMDESKKLLVRLGEYDLRRWEKWELDLDIKEVFVHPNYSKSTTDNDIALLHLAQPATLSQTIVPICLPDSGLAERELNQAGQETLVTGWGYHSSREKEAKRNRTFVLNFIKIPVVPHNECSEVMSNMVSENMLCAGILGDRQDACEGDSGGPMVASFHGTWFLVGLVSWGEGCGLLHNYGVYTKVSRYLDWIHGHIRDKEAPQKSWAP", "values": [{"measurement": "PAR1 proteolysis (release of alkaline phosphatase tag into the supernatant)", "setting": "[9]", "value": "APC^CIDR cleaves PAR1 with comparable activity as APC"}]}
